The assay has as its target Soluble human VCAM-1 IgG fusion protein (immobilized on coverslips) (human) (UniProt P19320). The assay is described as follows: cell-based or functional assay.
Sequence of UniProt P19320 (P19320 25-698 limits assumed): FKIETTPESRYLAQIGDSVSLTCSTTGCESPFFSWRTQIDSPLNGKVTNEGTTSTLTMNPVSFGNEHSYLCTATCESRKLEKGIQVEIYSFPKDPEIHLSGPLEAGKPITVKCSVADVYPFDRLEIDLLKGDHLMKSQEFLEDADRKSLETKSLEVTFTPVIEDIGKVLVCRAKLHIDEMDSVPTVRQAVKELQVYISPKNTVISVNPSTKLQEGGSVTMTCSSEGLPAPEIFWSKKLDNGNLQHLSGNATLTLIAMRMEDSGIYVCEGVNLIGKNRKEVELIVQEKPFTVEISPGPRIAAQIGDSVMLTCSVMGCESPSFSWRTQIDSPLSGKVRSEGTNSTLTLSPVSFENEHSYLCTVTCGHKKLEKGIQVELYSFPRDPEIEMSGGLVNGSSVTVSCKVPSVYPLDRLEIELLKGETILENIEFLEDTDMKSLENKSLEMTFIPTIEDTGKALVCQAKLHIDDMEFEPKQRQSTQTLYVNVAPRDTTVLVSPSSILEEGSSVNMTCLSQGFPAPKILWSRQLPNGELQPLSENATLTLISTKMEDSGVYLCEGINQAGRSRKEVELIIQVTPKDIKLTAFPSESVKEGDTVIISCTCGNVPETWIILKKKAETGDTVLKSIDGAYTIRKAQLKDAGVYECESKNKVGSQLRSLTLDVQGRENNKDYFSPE

For “VLA-4 integrin (on CD4+ naive and memory T cells) (from UniProt P13612 34-1032; P05556 21-798) (receptor)”, the memory CD4+ T cell accumulation on immobilized VCAM-1 under flow; inhibition by pretreatment with CKβ-13 is 42 to 72%.

The values are drawn from patent US20030143696A1.
